The record followed here is PMC2570489, “The Co-Operonic PE25/PPE41 Protein Complex of Mycobacterium tuberculosis Elicits Increased Humoral and Cell Mediated Immune Response” (PLoS ONE, 2008).

The target of the assay is T1, PPE41 protein of Mycobacterium tuberculosis (Mycobacterium tuberculosis, UniProt Q79FE1 1-194).
T1 construct: also called Rv2430c; rRv2431c (as printed in the methods)
T1 sequence: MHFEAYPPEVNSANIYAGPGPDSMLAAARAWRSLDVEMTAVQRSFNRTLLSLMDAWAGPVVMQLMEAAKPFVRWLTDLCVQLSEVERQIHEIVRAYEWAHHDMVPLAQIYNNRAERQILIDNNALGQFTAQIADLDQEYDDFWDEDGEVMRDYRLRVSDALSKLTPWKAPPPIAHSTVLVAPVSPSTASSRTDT
Kind of assay: co-purification by Cobalt affinity chromatography. As to conditions: partners not purified.

B1: PE25 protein of Mycobacterium tuberculosis (natural protein)
chain: MSFVITNPEALTVAATEVRRIRDRAIQSDAQVAPMTTAVRPPAADLVSEKAATFLVEYARKYRQTIAAAAVVLEEFAHALTTGADKYATAEADNIKTFS
notes: also called Rv2431c; rRv2430c (as printed in the methods)
With B1, the binding result was “binds”.
